Measurements published in article PMC6122969.

Each binder was assayed against HLA-A*02:01 on T2 cells (human (endogenous in T2)) (assay: flow cytometry on cells).

Time for which complexes with HLA-A*02:01 lasted, > 4 h:
FLGPWPAAS [p14 peptide … from the LRPAP1 signal peptide], LTLLGTLWGA [p34 peptide … from PCDHGA6], SVLWLGALGL [p35 peptide … from C20orf141], VIIKPLVWV [p55 peptide … from APCS]
